Laboratory results from patent publication US20230002480A1.

What was measured:
Assay in all cases: cell-based or functional assay
[1] = target: HIV-1 Env of pseudovirus 928-28 (HIV-1)
[2] = target: HIV-1 Env of pseudovirus 6540.v4.c1 (HIV-1)
[3] = target: HIV-1 Env of pseudovirus MS208.A1 (HIV-1)
[4] = target: HIV-1 Env of pseudovirus X1193_c1 (HIV-1)
[5] = target: HIV-1 Env of pseudovirus Ce703010054_2A2 (HIV-1)
[6] = target: HIV-1 Env of pseudovirus HIV-001428-2.42 (HIV-1)
[7] = target: HIV-1 Env of pseudovirus ZM249M.PL1 (HIV-1)
[8] = target: HIV-1 Env of pseudovirus 231966.c02 (HIV-1)
[9] = target: HIV-1 Env of pseudovirus CNE5 (HIV-1)
[10] = target: HIV-1 Env of pseudovirus P1981_C5_3 (HIV-1)
[11] = target: HIV-1 Env of pseudovirus Ce2010_F5 (HIV-1)
[12] = target: HIV-1 Env of pseudovirus ZM109F.PB4 (HIV-1)
[13] = target: HIV-1 Env of pseudovirus ZM233M.PB6 (HIV-1)
[14] = target: HIV-1 Env of pseudovirus ZM53M.PB12 (HIV-1)
[15] = target: HIV-1 Env of pseudovirus T278-50 (HIV-1)
[16] = target: HIV-1 Env of pseudovirus Ce0682_E4 (HIV-1)
[17] = target: HIV-1 Env of pseudovirus CAAN5342.A2 (HIV-1)
[18] = target: HIV-1 Env of pseudovirus T251-18 (HIV-1)
[19] = target: HIV-1 Env of pseudovirus Ce0393_C3 (HIV-1)
[20] = target: HIV-1 Env of pseudovirus CNE53 (HIV-1)
[21] = target: HIV-1 Env of pseudovirus Ce1176_A3 (HIV-1)
[22] = target: HIV-1 Env of pseudovirus BJOX015000.11.5 (HIV-1)
[23] = target: HIV-1 Env of pseudovirus CNE20 (HIV-1)
[24] = target: HIV-1 Env of pseudovirus 1056_10_TA11_1826 (HIV-1)
[25] = target: HIV-1 Env of pseudovirus 6811.v7.c18 (HIV-1)
[26] = target: HIV-1 Env of pseudovirus ZM214M.PL15 (HIV-1)
[27] = target: HIV-1 Env of pseudovirus X1254_c3 (HIV-1)
[28] = target: HIV-1 Env of pseudovirus Du156.12 (HIV-1)
[29] = target: HIV-1 Env of pseudovirus 1012_11_TC21_3257 (HIV-1)
[30] = target: HIV-1 Env of pseudovirus R2184.c04 (HIV-1)
[31] = target: HIV-1 Env of pseudovirus BJOX028000.10.3 (HIV-1)
[32] = target: HIV-1 Env of pseudovirus Q842.d12 (HIV-1)
[33] = target: HIV-1 Env of pseudovirus CAP210.2.00.E8 (HIV-1)
[34] = target: HIV-1 Env of pseudovirus Q461.e2 (HIV-1)
[35] = target: HIV-1 Env of pseudovirus Du422.1 (HIV-1)

NIH 45-46 (antibody) was tested, and the neutralization IC50 [1] was 0.1 µg/mL, the neutralization IC80 [1] was 0.39 µg/mL and the IC50, titer in TZM.bl cells [2] was > 50 µg/mL. For the same substance, the IC80, titer in TZM.bl cells [2] was > 50 µg/mL, the neutralization IC50 [3] was 0.09 µg/mL and the neutralization IC80 [3] was 0.6 µg/mL. For the same substance, the IC50, titer in TZM.bl cells [4] was 0.04 µg/mL, the IC80, titer in TZM.bl cells [4] was 0.16 µg/mL and the neutralization IC50 [5] was 0.22 µg/mL. For the same substance, the neutralization IC80 [5] was 0.97 µg/mL, the neutralization IC50 [6] was < 0.001 µg/mL and the neutralization IC80 [6] was 0.01 µg/mL. The neutralization IC50 [7] was 0.02 µg/mL, the neutralization IC80 [7] was 0.06 µg/mL and the IC50, titer in TZM.bl cells [8] was 1.11 µg/mL. For the same substance, the IC80, titer in TZM.bl cells [8] was 11.4 µg/mL, the IC50, titer in TZM.bl cells [9] was 0.09 µg/mL and the IC80, titer in TZM.bl cells [9] was 0.41 µg/mL. It also gave an IC50, titer in TZM.bl cells [10] of 0.05 µg/mL, an IC80, titer in TZM.bl cells [10] of 0.22 µg/mL and a neutralization IC50 [11] of 0.13 µg/mL. The neutralization IC80 [11] was 0.43 µg/mL, the neutralization IC50 [12] was 0.22 µg/mL and the neutralization IC80 [12] was 0.22 µg/mL. It also gave a neutralization IC50 [13] of 1.86 µg/mL, a neutralization IC80 [13] of 16.5 µg/mL and a neutralization IC50 [14] of 0.65 µg/mL. The neutralization IC80 [14] was 0.65 µg/mL, the IC50, titer in TZM.bl cells [15] was > 30 µg/mL and the IC80, titer in TZM.bl cells [15] was > 30 µg/mL. It also gave a neutralization IC50 [16] of 0.07 µg/mL, a neutralization IC80 [16] of 0.25 µg/mL and a neutralization IC50 [17] of 0.11 µg/mL. For the same substance, the neutralization IC80 [17] was 0.33 µg/mL, the IC50, titer in TZM.bl cells [18] was 5.26 µg/mL and the IC80, titer in TZM.bl cells [18] was 5.26 µg/mL. The neutralization IC50 [19] was 0.32 µg/mL, the neutralization IC80 [19] was 1.07 µg/mL and the neutralization IC50 [20] was 0.01 µg/mL. The neutralization IC80 [20] was 0.04 µg/mL, the neutralization IC50 [21] was 1.29 µg/mL and the neutralization IC80 [21] was 5.55 µg/mL. For the same substance, the IC50, titer in TZM.bl cells [22] was 0.06 µg/mL, the IC80, titer in TZM.bl cells [22] was 0.38 µg/mL and the neutralization IC50 [23] was 8.71 µg/mL. It also gave a neutralization IC80 [23] of 47 µg/mL, a neutralization IC50 [24] of 0.12 µg/mL and a neutralization IC80 [24] of 0.59 µg/mL. The IC50, titer in TZM.bl cells [25] was 0.03 µg/mL, the IC80, titer in TZM.bl cells [25] was 0.13 µg/mL and the neutralization IC50 [26] was 0.05 µg/mL. For the same substance, the neutralization IC80 [26] was 0.39 µg/mL, the IC50, titer in TZM.bl cells [27] was 0.08 µg/mL and the IC80, titer in TZM.bl cells [27] was 0.08 µg/mL. The neutralization IC50 [28] was 0.01 µg/mL, the neutralization IC80 [28] was 0.05 µg/mL and the neutralization IC50 [29] was 0.01 µg/mL. It also gave a neutralization IC80 [29] of 0.04 µg/mL, an IC50, titer in TZM.bl cells [30] of 0.03 µg/mL and an IC80, titer in TZM.bl cells [30] of 0.12 µg/mL. For the same substance, the IC50, titer in TZM.bl cells [31] was 0.07 µg/mL, the IC80, titer in TZM.bl cells [31] was > 50 µg/mL and the neutralization IC50 [32] was 0.03 µg/mL. The neutralization IC80 [32] was 0.03 µg/mL, the neutralization IC50 [33] was > 50 µg/mL and the neutralization IC80 [33] was > 50 µg/mL. The neutralization IC50 [34] was 0.06 µg/mL, the neutralization IC80 [34] was 0.32 µg/mL and the neutralization IC50 [35] was > 50 µg/mL. For the same substance, the neutralization IC80 [35] was > 50 µg/mL.
